This series concerns MS2 coat protein. The experiment in a line: apparent KD of MS2 coat protein; higher = weaker reporter binding. The note with it: Eterna round: R107. The procedure, abridged: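 Each design's apparent KD comes from the median of binding-curve fits to its normalised clusters. Those clusters carried RNA switches transcribed on-chip from Illumina sequencing clusters. SNAP-549-labelled MS2 coat protein was titrated onto them in twofold steps (0.7 or 1.5 nM to 3 µM; per step 0.8–1.5 h down to 10–20 min). Conditions were 100 mM Tris-HCl pH 7.5, 80 mM KCl, 4 mM MgCl2, without or with constant ligand.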

Where [1] appears, read: input ligand: theophylline 20 uM.
The mark [2] stands for this setting: input ligand: theophylline 2 mM.
The mark [3] stands for this setting: input ligand: tryptophan 2.4 mM.

On to “CAAUUUAUAUGAAGGAGCGUCGAAAAUGGGUAAACAUGAGGAUCACCCAUGUAAAGGGAACGACAGGUAGGUCGCAUAUGGAUUG [AstromonsSSArgB#10]”, for which the “apparent KD of MS2 coat protein” value is, setting by setting: (input ligand: arginine 13.2 mM) 123 nM; (input ligand: none) 180 nM; under setting [1], 234 nM; under setting [2], 316 nM; under setting [3], 182 nM.

On to “CAAUUUCGAAUAGAUACCAGCUGUCAUAAACACAUGAGGAUCACCCAUGUGCUUCUCGUCAGCCCUUGGCAGCUAUAACUAGAGC [theeternabot_sameState_MS2_Theo_B_40]”, for which the “apparent KD of MS2 coat protein” value (input ligand: arginine 13.2 mM) was 15.4 nM, the “apparent KD of MS2 coat protein” value under setting [1] stood at 16.5 nM and the “apparent KD of MS2 coat protein” value under setting [3] was 16.1 nM.

“CACAUGAGGAUCACCCAUGUCUGAACUGAAGGAGCGCUAAACAAGGCAGGUAGGUCGCGGAAUUUUGUGUGCAUAUGCACACGGG [9.R]”: the “apparent KD of MS2 coat protein” value amounted to 16.8 nM (input ligand: arginine 13.2 mM); 17.2 nM (input ligand: none); 32.7 nM under setting [1]; 21.1 nM under setting [2]; 17.6 nM under setting [3].

With “CACAUGAGGAUCACCCAUGUCUGAACUGAAGGAGCGCUAAAUAAGGCAGGUAGGUCGCGGAAUUUUGUGUGCAUAUGCAUAUGGG [9.M]”, the “apparent KD of MS2 coat protein” value runs as follows: (input ligand: arginine 13.2 mM) 23.8 nM; (input ligand: none) 26.8 nM; under setting [1], 37.2 nM; under setting [2], 34.2 nM; under setting [3], 28.8 nM.

For the sequence “CACUACAUGAGGAUCACCCAUGUAUACUGACGAGGACCGGUACGGCCGCCACUCGAACCGAAACCGACUUCAUUCUGUGUACCAU [theeternabot_sameState_MS2_Trp_A_26]”, the “apparent KD of MS2 coat protein” value by setting is: (input ligand: arginine 13.2 mM) 15 nM; under setting [1], 22.7 nM; under setting [2], 19.3 nM.

In the case of “CAGAACAUGAGGAUCACCCAUGUAAACGACCGAGGACCGGUACGGCCGCCACUCGAUAUGUCUUGAGGGAGAUAUGGAUUCACAU [theeternabot_sameState_MS2_Trp_A_46]”, the “apparent KD of MS2 coat protein” value runs as follows: (input ligand: arginine 13.2 mM) 23 nM; under setting [1], 51.4 nM; under setting [2], 44.4 nM.

In the case of “CAGAACAUGAGGAUCACCCAUGUCAGGGAUACCAGCUCAGACAUGGGCCCUUGGCAGCUCUGUGGCUGACGAAAGUCAGCAUCUG [#17 SameState-TheophyllineA]”, the “apparent KD of MS2 coat protein” value (input ligand: arginine 13.2 mM) turned out to be 17.5 nM, the “apparent KD of MS2 coat protein” value under setting [1] turned out to be 109 nM and the “apparent KD of MS2 coat protein” value under setting [3] turned out to be 19.5 nM.

As for “CAGCCACAUGAGGAUCACCCAUGUGAUGAUACCAGCUUCGUCUUAAGCCCUUGGCAGCAUAUCUCUUUGUUCUCAUACAUAGCAU [theeternabot_sameState_MS2_Theo_A_16]”, the “apparent KD of MS2 coat protein” value came to 12 nM (input ligand: arginine 13.2 mM), 17.3 nM under setting [1] and 11.4 nM under setting [3].

“CAGUGAGAACGAAGGAGCGCUGAAUGAUGUGGACAUGAGGAUCACCCAUGUUAAGUCCAAUGGCAGGUAGGUCGCGUAACACUAG [Same State - Arginine B]”: the “apparent KD of MS2 coat protein” value (input ligand: arginine 13.2 mM) came out at 14.1 nM; the “apparent KD of MS2 coat protein” value (input ligand: none) stood at 15.8 nM; the “apparent KD of MS2 coat protein” value under setting [1] was determined as 11.9 nM; the “apparent KD of MS2 coat protein” value under setting [2] was determined as 12.7 nM; the “apparent KD of MS2 coat protein” value under setting [3] was determined as 15.8 nM.

For “CAGUGAGAGUCGGCCGCCACUUAACGCAAGUAGCGCAACCCAAAACAUGAGGAUCACCCAUGUCGAAGGACCGGGACAAUGAGCG [theeternabot_sameState_MS2_Trp_B_47]”, the “apparent KD of MS2 coat protein” value reads like this: (input ligand: arginine 13.2 mM) 11.5 nM; under setting [1], 16.7 nM; under setting [2], 11.7 nM.

In the case of “CAUAUUGUAACUGAUACCAGUGUACUGACAUGAGGAUCACCCAUGUUGGGUUUUGUUGUACACCCUUGGCAGCAGAAUCAAUAUG [AstrosExyTheB#4]”, the “apparent KD of MS2 coat protein” value is 45.6 nM (input ligand: arginine 13.2 mM), 74.2 nM under setting [1] and 60.4 nM under setting [3].

“CAUCGGGCGGUAAAUGGCGGGUACGGUGAUACCAGUUUUUGAUUUAACCCUUGGCAGCACUAUACAUGAGGAUCACCCAUGUAAU [theeternabot_exclusion_MS2_Theo_A_15]”: the “apparent KD of MS2 coat protein” value came to 17.7 nM (input ligand: arginine 13.2 mM), 23.2 nM under setting [1] and 19.5 nM under setting [3].

For the sequence “CAUGCGGCUAGUGAGCGUGGUGAGUAAAGGCGAGGACCGGUACGGCCGCCACUCGAGGCAAGACAUGAGGAUCACCCAUGUUGUA [theeternabot_exclusion_MS2_Trp_A_27]”, the “apparent KD of MS2 coat protein” value came to 10.8 nM (input ligand: arginine 13.2 mM), 19.3 nM under setting [1] and 15.9 nM under setting [2].

As for “CAUUAAUUACGAAGGAGCGUCGAGAAUGGGUAAACAUGAGGAUCACCCAUGUGAAGGGAACGGCAGGUAGGUCGCGUAAUUAAUG [#22 Same State - Arginine B]”, the “apparent KD of MS2 coat protein” value turned out to be 105 nM (input ligand: arginine 13.2 mM); 97.2 nM (input ligand: none); 116 nM under setting [1]; 75.1 nM under setting [2]; 60.5 nM under setting [3].

On to “CCAUAAGUACCGGUCCUCAGAUCCUCAUGACGAGGACCGGUACGGCCGCCACUCGAAACAUGAGGAUCACCCAUGUAAUAAUACC [Brourdmod18]”, for which the “apparent KD of MS2 coat protein” value runs as follows: (input ligand: arginine 13.2 mM) 26.4 nM; under setting [1], 101 nM; under setting [2], 97.6 nM.

Regarding “CCAUGCAGGUCGGCCGCCACUACACACAUGAGGAUCACCCAUGUAGUUACUGGGUGAAGUGGCAGUAGGACCGGGACCUGCACAU [Brourdmod19]”, the “apparent KD of MS2 coat protein” value runs as follows: (input ligand: arginine 13.2 mM) 94.7 nM; under setting [1], 326 nM; under setting [2], 541 nM.

On to “CCAUGGCUAGGAAGGAGCGCAUACUUCACAUGAGGAUCACCCAUGUCGAGACGUGAGUCAGUGCAGGUAGGUCGCCUAGCCAUGG [Same State - Arginine B (Freestyle 30)]”, for which the “apparent KD of MS2 coat protein” value is, setting by setting: (input ligand: arginine 13.2 mM) 19.8 nM; (input ligand: none) 16.7 nM; under setting [1], 29.2 nM; under setting [2], 24.8 nM; under setting [3], 18.6 nM.

As for “CCCAAAUAGAUAUUUGGGAUUUUACUCGAAGGAGCGUCAUAGUAGGCAGGUAGGUCGCGAGACAUGAGGAUCACCCAUGUAGAGA [ss-argA-N]”, the “apparent KD of MS2 coat protein” value is, setting by setting: (input ligand: arginine 13.2 mM) 34.1 nM; (input ligand: none) 41.1 nM; under setting [1], 45.9 nM; under setting [2], 45.1 nM; under setting [3], 40.9 nM.
